# Laboratory results taken from patent US9150649B2, “Potent conjugates and hydrophilic linkers” (priority 2008, dated 2015).
# B1: unconjugated antibody: unconjugated humanized C242 antibody, binds the CanAg antigen (antibody, chains of the INN, looked up, V domains shown)
# VH: QVQLVQSGAEVKKPGETVKISCKASDYTFTYYGMNWVKQAPGQGLKWMGWIDTTTGEPTYAQKFQGRIAFSLETSASTAYLQIKSLKSEDTATYFCARRGPYNWYFDVWGQGTTVTVSS
# VL: DIVMTQSPLSVPVTPGEPVSISCRSSKSLLHSNGNTYLYWFLQRPGQSPQLLIYRMSNLVSGVPDRFSGSGSGTAFTLRISRVEAEDVGVYYCLQHLEYPFTFGPGTKLELK
# Conditions: mouse, in vivo, iv, 12 mg/kg
# Method: CD1 mice were injected intravenously, by a single bolus, of 5 mg/kg conjugates (antibody-based dose; 3 mice per group). Plasma samples were collected at several time points up to 4 weeks. The plasma samples were analyzed for antibody concentration and for conjugate concentration using ELISA. For antibody ELISA, the plasma samples were added to microtiter plates containing coated, immobilized goat-anti-human IgG (H+L) antibody, washed, and detected using horseradish peroxidase-conjugated goat-anti-human IgG (Fe) antibody. For conjugate concentration, the plasma samples were added to microtiter plates containing coated, immobilized goat-anti-human IgG (H+L) antibody, washed, and detected using biotinylated anti-maytansine antibody and alkaline phosphatase-conjugated streptavidin.
molecule,measurement,value
B1,area under the curve (AUC),38798 µg·h/mL
